In US20220411504A1 (Janssen / Centocor, published 2022):

T1: DLL3 on tumor cells (SHP-77, HCC1833, G361) (human, UniProt Q9NYJ7 27-618)
T1 sequence: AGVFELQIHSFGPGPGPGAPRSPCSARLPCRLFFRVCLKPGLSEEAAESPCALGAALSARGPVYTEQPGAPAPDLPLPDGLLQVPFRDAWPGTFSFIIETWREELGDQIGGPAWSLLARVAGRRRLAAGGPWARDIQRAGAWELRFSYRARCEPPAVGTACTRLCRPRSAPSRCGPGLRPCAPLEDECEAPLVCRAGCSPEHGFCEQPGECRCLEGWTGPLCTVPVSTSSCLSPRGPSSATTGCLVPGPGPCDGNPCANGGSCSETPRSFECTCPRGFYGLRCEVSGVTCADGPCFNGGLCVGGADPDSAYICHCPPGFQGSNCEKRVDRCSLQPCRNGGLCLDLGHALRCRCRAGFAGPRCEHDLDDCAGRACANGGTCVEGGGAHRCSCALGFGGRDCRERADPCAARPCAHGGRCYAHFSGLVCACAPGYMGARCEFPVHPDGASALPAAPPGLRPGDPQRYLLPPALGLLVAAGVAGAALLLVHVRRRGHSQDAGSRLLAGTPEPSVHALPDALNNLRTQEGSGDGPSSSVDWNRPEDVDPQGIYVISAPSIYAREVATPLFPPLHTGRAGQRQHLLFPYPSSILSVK

T2: recombinant human DLL3 (human, UniProt Q9NYJ7 27-492)
T2 construct: also called DLL3 antigen; Delta-like protein 3
T2 sequence: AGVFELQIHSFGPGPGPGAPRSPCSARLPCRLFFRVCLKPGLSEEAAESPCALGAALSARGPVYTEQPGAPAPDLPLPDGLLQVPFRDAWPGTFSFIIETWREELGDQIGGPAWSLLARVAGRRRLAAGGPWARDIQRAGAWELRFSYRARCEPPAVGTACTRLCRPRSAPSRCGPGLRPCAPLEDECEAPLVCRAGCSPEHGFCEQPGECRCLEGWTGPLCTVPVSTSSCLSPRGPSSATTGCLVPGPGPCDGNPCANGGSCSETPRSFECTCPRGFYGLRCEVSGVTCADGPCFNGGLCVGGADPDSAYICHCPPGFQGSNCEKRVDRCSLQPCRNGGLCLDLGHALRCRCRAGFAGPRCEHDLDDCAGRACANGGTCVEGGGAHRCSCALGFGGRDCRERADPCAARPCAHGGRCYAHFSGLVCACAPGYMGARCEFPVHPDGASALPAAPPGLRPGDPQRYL


Assays:
recombinant HLA-G [1] = molecular target: recombinant HLA-G (human); experiment: ELISA, scFv in E. coli supernatant on recombinant HLA-G
Protocol: (§1) The original and germline-optimized v-regions were screened for thermal stability in scFv format. Briefly, v-regions were cloned into scFv format and were expressed in E. coli. The culture supernatants were assessed by ELISA for their abilities to bind recombinant HLA-G. Supernatant samples were also heat shocked at either 55, 60, or 65° C., and the binding of the heat-shocked samples was compared to the unheated samples. This analysis provided an estimate of the thermal stability of the v-regions when formatted as scFv.
(§2) V-regions were expressed as scFv in the supernatant from E. coli and were analyzed for their ability to bind recombinant HLA-G by ELISA. Samples were tested at room temperature or after heat treatment for 10 min at 55, 60, or 65° C.

recombinant HLA-G [2] = molecular target: recombinant HLA-G (human); experiment: ELISA after 10 min heat treatment of the scFv supernatant
Protocol: as §1, §2

[3] = molecular target: T1, DLL3 on tumor cells (SHP-77, HCC1833, …); experiment: cell-based or functional assay
recombinant human DLL3 = molecular target: T2, recombinant human DLL3; experiment: SPR (Biacore T200), antibody captured by goat anti-Fc, DLL3 titrated
Protocol: The binding affinity of anti-DLL3×CD3 antibodies to the recombinant human DLL3 was determined by surface plasmon resonance (SPR) using a Biacore T200 instrument. […] The association was monitored for 2 minutes and the and dissociation for 5 or 60 minutes, using a flow rate of 100 μL/min. Raw binding data was referenced by subtracting the analyte binding signals from blanks and analyzed using a 1:1 Langmuir binding model using the Biacore Insight evaluation software to obtain the kinetics which were used to calculate the binding affinity.
The antibodies were captured using an anti-human Fc antibody and the antigens were injected in solution.

Row | Binder | Room temperature binding signal (recombinant HLA-G [1]) | % Binding retained 55° C. (recombinant HLA-G [2]) | % Binding retained 60° C. (recombinant HLA-G [2]) | % Binding retained 65° C. (recombinant HLA-G [2]) | Cytotoxicity, % lysis of SHP-77 cells (whole PBMCs, 1:1 ET, 30 nM) [3] | Kd (recombinant human DLL3)
1 | MHGB665 v-region as scFv (E. coli supernatant) (scFv, V domains shown, One scFv chain) VH: QVQLQQSGPGLVKPSQTLSLTCAISGDSVSSNSAAWNWIRQSPSRGLEWLGRTYYRSKWYNDYAVSVKSRITINPDTSKNQISLQLNSVTPEDTAVYYCAGDRRYGIVGLPFAYWGQGTLVTVSS VL: not shown | 1.52e+07 | 103% | 122% | 11% |  | 
2 | DL3B582 (bispecific antibody, also called CD3W245-LH-scFv; DL3B279-Fab) heavy: QVQLVQSGAEVKKPGASVKVSCKASGNTFTNYYIHWVRQAPGQGLEWMGIINPSGGSTSYAQKLQGRMTMTRDTSTSTVYMELSSLRSEDTAVYFCARQGPFIGDAFDIWGQGTMVTVSSASTKGPSVFPLAPSSKSTSGGTAALGCLVKDYFPEPVTVSWNSGALTSGVHTFPAVLQSSGLYSLSSVVTVPSSSLGTQTYICNVNHKPSNTKVDKKVEPKSCDKTHTCPPCPAPEAAGGPSVFLFPPKPKDTLMISRTPEVTCVVVSVSHEDPEVKFNWYVDGVEVHNAKTKPREEQYNSTYRVVSVLTVLHQDWLNGKEYKCKVSNKALPAPIEKTISKAKGQPREPQVYVLPPSREEMTKNQVSLLCLVKGFYPSDIAVEWESNGQPENNYLTWPPVLDSDGSFFLYSKLTVDKSRWQQGNVFSCSVMHEALHNHYTQKSLSLSPG light: DIQMTQSPSSLSASVGDRVTITCRASQGISNYLAWFQQKPGKAPKSLIYAASSLQSGVPSKFSGSGSGTDFTLTISSLQPEDFATYYCQQYNSYPYTFAQGTKLEIKRTVAAPSVFIFPPSDEQLKSGTASVVCLLNNFYPREAKVQWKVDNALQSGNSQESVTEQDSKDSTYSLSSTLTLSKADYEKHKVYACEVTHQGLSSPVTKSFNRGEC scFv: DIQMTQSPSSLSASVGDRVTITCRARQSIGTAIHWYQQKPGKAPKLLIKYASESISGVPSRFSGSGSGTDFTLTISSLQPEDFATYYCQQSGSWPYTFGQGTKLEIKGGSEGKSSGSGSESKSTGGSEVQLVESGGGLVKPGGSLRLSCAASGFTFSRYNMNWVRQAPGKGLEWVSSISTSSNYIYYADSVKGRFTFSRDNAKNSLDLQMSGLRAEDTAIYYCTRGWGPFDYWGQGTLVTVSSEPKSSDKTHTCPPCPAPEAAGGPSVFLFPPKPKDTLMISRTPEVTCVVVSVSHEDPEVKFNWYVDGVEVHNAKTKPREEQYNSTYRVVSVLTVLHQDWLNGKEYKCKVSNKALPAPIEKTISKAKGQPREPQVYVYPPSREEMTKNQVSLTCLVKGFYPSDIAVEWESNGQPENNYKTTPPVLDSDGSFALVSKLTVDKSRWQQGNVFSCSVMHEALHNHYTQKSLSLSPG |  |  |  |  | 87.3% | 0.016 nM
3 | DL3B583 (bispecific antibody, also called CD3W245-HL-scFv; DL3B279-Fab) heavy: QVQLVQSGAEVKKPGASVKVSCKASGNTFTNYYIHWVRQAPGQGLEWMGIINPSGGSTSYAQKLQGRMTMTRDTSTSTVYMELSSLRSEDTAVYFCARQGPFIGDAFDIWGQGTMVTVSSASTKGPSVFPLAPSSKSTSGGTAALGCLVKDYFPEPVTVSWNSGALTSGVHTFPAVLQSSGLYSLSSVVTVPSSSLGTQTYICNVNHKPSNTKVDKKVEPKSCDKTHTCPPCPAPEAAGGPSVFLFPPKPKDTLMISRTPEVTCVVVSVSHEDPEVKFNWYVDGVEVHNAKTKPREEQYNSTYRVVSVLTVLHQDWLNGKEYKCKVSNKALPAPIEKTISKAKGQPREPQVYVLPPSREEMTKNQVSLLCLVKGFYPSDIAVEWESNGQPENNYLTWPPVLDSDGSFFLYSKLTVDKSRWQQGNVFSCSVMHEALHNHYTQKSLSLSPG light: DIQMTQSPSSLSASVGDRVTITCRASQGISNYLAWFQQKPGKAPKSLIYAASSLQSGVPSKFSGSGSGTDFTLTISSLQPEDFATYYCQQYNSYPYTFAQGTKLEIKRTVAAPSVFIFPPSDEQLKSGTASVVCLLNNFYPREAKVQWKVDNALQSGNSQESVTEQDSKDSTYSLSSTLTLSKADYEKHKVYACEVTHQGLSSPVTKSFNRGEC scFv: EVQLVESGGGLVKPGGSLRLSCAASGFTFSRYNMNWVRQAPGKGLEWVSSISTSSNYIYYADSVKGRFTFSRDNAKNSLDLQMSGLRAEDTAIYYCTRGWGPFDYWGQGTLVTVSSGGSEGKSSGSGSESKSTGGSDIQMTQSPSSLSASVGDRVTITCRARQSIGTAIHWYQQKPGKAPKLLIKYASESISGVPSRFSGSGSGTDFTLTISSLQPEDFATYYCQQSGSWPYTFGQGTKLEIKEPKSSDKTHTCPPCPAPEAAGGPSVFLFPPKPKDTLMISRTPEVTCVVVSVSHEDPEVKFNWYVDGVEVHNAKTKPREEQYNSTYRVVSVLTVLHQDWLNGKEYKCKVSNKALPAPIEKTISKAKGQPREPQVYVYPPSREEMTKNQVSLTCLVKGFYPSDIAVEWESNGQPENNYKTTPPVLDSDGSFALVSKLTVDKSRWQQGNVFSCSVMHEALHNHYTQKSLSLSPG |  |  |  |  | 99.8% | 0.016 nM
4 | MHGB694 v-region as scFv (E. coli supernatant) (scFv, V domains shown, One scFv chain) VH: EVQLLESGGGLVQPGGSLRLSCAASGFTFSSYAMHWVRQAPGKGLDWVSGISGSGFSTYYVDSVKGRFTISRDNSKHTLYLQMNSLRAEDTAVYYCAKDNLVAGTVFDYWGQGTLVTVSS VL: not shown | 3.07e+06 | 85% | 9% | 4% |  | 
5 | MHGB737 v-region as scFv (E. coli supernatant) (scFv, V domains shown, One scFv chain; also called MHGB737 (GL optimized B694)) VH: EVQLLESGGGLVQPGGSLRLSCAASGFTFSSYAMHWVRQAPGKGLEWVSGISGSGFSTYYVDSVKGRFTISRDNSKNTLYLQMNSLRAEDTAVYYCAKDNLVAGTVFDYWGQGTLVTVSS VL: not shown | 2.75e+06 | 84% | 80% | 48% |  | 
6 | MHGB738 v-region as scFv (E. coli supernatant) (scFv, V domains shown, One scFv chain; also called MHGB738 (GL optimized B688)) VH: QVQLQQSGPGLVKPSQTLSLTCAISGDSVSSNRAAWNWIRQSPSRGLEWLGRTYYRSKWYNDYAVSVKSRITINPDTSKNQISLQLNSVTPEDTAVYYCARVRPGIPFDYWGQGTPVTVSS VL: not shown | 5.76e+06 | 14% | 2% | 1% |  | 
7 | DL3B587 (bispecific antibody, human IgG1, kappa, L234A L235A, also called CD3W245-Fab; DL3B279-LH-scFv) scFv: DIQMTQSPSSLSASVGDRVTITCRASQGISNYLAWFQQKPGKAPKSLIYAASSLQSGVPSKFSGSGSGTDFTLTISSLQPEDFATYYCQQYNSYPYTFAQGTKLEIKGGSEGKSSGSGSESKSTGGSQVQLVQSGAEVKKPGASVKVSCKASGNTFTNYYIHWVRQAPGQGLEWMGIINPSGGSTSYAQKLQGRMTMTRDTSTSTVYMELSSLRSEDTAVYFCARQGPFIGDAFDIWGQGTMVTVSSEPKSSDKTHTCPPCPAPEAAGGPSVFLFPPKPKDTLMISRTPEVTCVVVSVSHEDPEVKFNWYVDGVEVHNAKTKPREEQYNSTYRVVSVLTVLHQDWLNGKEYKCKVSNKALPAPIEKTISKAKGQPREPQVYVLPPSREEMTKNQVSLLCLVKGFYPSDIAVEWESNGQPENNYLTWPPVLDSDGSFFLYSKLTVDKSRWQQGNVFSCSVMHEALHNHYTQKSLSLS heavy: EVQLVESGGGLVKPGGSLRLSCAASGFTFSRYNMNWVRQAPGKGLEWVSSISTSSNYIYYADSVKGRFTFSRDNAKNSLDLQMSGLRAEDTAIYYCTRGWGPFDYWGQGTLVTVSSASTKGPSVFPLAPSSKSTSGGTAALGCLVKDYFPEPVTVSWNSGALTSGVHTFPAVLQSSGLYSLSSVVTVPSSSLGTQTYICNVNHKPSNTKVDKKVEPKSCDKTHTCPPCPAPEAAGGPSVFLFPPKPKDTLMISRTPEVTCVVVSVSHEDPEVKFNWYVDGVEVHNAKTKPREEQYNSTYRVVSVLTVLHQDWLNGKEYKCKVSNKALPAPIEKTISKAKGQPREPQVYVYPPSREEMTKNQVSLTCLVKGFYPSDIAVEWESNGQPENNYKTTPPVLDSDGSFALVSKLTVDKSRWQQGNVFSCSVMHEALHNHYTQKSLSLSPG light: DIQMTQSPSSLSASVGDRVTITCRARQSIGTAIHWYQQKPGKAPKLLIKYASESISGVPSRFSGSGSGTDFTLTISSLQPEDFATYYCQQSGSWPYTFGQGTKLEIKRTVAAPSVFIFPPSDEQLKSGTASVVCLLNNFYPREAKVQWKVDNALQSGNSQESVTEQDSKDSTYSLSSTLTLSKADYEKHKVYACEVTHQGLSSPVTKSFNRGEC |  |  |  |  | 83.3% | 0.031 nM
